# Test results taken from PMC5299547 (Analytical Chemistry, 2017).
# T1: tryptophan synthase, beta subunit (Salmonella typhimurium, UniProt P0A2K1 2-397)
# T1 sequence: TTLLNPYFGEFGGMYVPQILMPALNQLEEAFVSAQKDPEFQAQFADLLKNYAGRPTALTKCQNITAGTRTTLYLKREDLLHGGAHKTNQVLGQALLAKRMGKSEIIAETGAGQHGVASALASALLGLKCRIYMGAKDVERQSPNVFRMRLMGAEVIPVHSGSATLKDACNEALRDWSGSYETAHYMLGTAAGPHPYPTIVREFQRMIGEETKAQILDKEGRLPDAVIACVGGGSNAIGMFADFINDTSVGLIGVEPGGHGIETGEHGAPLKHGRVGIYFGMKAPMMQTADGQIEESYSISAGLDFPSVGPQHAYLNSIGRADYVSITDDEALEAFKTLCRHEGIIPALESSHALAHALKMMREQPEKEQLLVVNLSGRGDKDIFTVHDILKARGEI
# Target: T1, tryptophan synthase, beta subunit
# Test: native MS; 10 μM purified complex buffer-exchanged in 200 mM ammonium acetate, electrosprayed (Synapt G2Si); subcomplexes generated in solution with 10–40% methanol, DMSO or acetonitrile
# Conditions: both partners purified
binder,measurement,value
"tryptophan synthase, alpha subunit (natural protein, Salmonella typhimurium) MERYENLFAQLNDRREGAFVPFVTLGDPGIEQSLKIIDTLIDAGADALELGVPFSDPLADGPTIQNANLRAFAAGVTPAQCFEMLALIREKHPTIPIGLLMYANLVFNNGIDAFYARCEQVGVDSVLVADVPVEESAPFRQAALRHNIAPIFICPPNADDDLLRQVASYGRGYTYLLSRSGVTGAENRGALPLHHLIEKLKEYHAAPALQGFGISSPEQVSAAVRAGAAGAISGSAIVKIIEKNLASPKQMLAELRSFVSAMKAASRA",binding result,binds
